The assay concerns the target synthetic biotinylated and pegylated phospho-tau peptide RSGYSSPG(pS)PG(pT)PGSRSR-OH (human). As to the kind of experiment: MSD electrochemiluminescence competition on the biotinylated phospho-tau peptide (SEQ ID NO:39) coated on streptavidin plates; competitor: SULFO-TAG-labelled AT8.

1 substance from patent US20150307600A1 can be followed below.

As to “AT8 anti-tau antibody (ThermoScientific, Rockford, Ill.)”, the IC50 (read off the curve) worked out at 40 nM.
